Measured values: publication PMC2190117
Several values for one entry are separate records, joined by “and”; a condition that tells them apart may be missing. Identical values can stand only once. Like-named read-outs stand apart in the source and are kept apart here.

Experiments:
[1] = biological target: C3-C3b receptor (human (endogenous in Raji, Daudi and HPL)); experiment: immunostaining of cells or tissue
[2] = biological target: C3-C3b receptor (human (endogenous in Raji, Daudi and HPL)); experiment: immunostaining of cells or tissue; remark: listed apart in the source
[3] = biological target: C3-C3b receptor (human (endogenous in Raji, Daudi and HPL)); experiment: rosette formation
human C3b (human) [4] = biological target: human C3b (human) (UniProt P01024); experiment: immunostaining of cells or tissue
human C3b (human) [5] = biological target: human C3b (human) (UniProt P01024); experiment: immunostaining of cells or tissue; remark: listed apart in the source
human C3b (human) [6] = biological target: human C3b (human) (UniProt P01024); experiment: immunostaining of cells or tissue; remark: listed apart in the source
human C3b (human) [7] = biological target: human C3b (human) (UniProt P01024); experiment: immunostaining of cells or tissue; remark: listed apart in the source
human C3b (human) [8] = biological target: human C3b (human) (UniProt P01024); experiment: immunostaining of cells or tissue; remark: listed apart in the source
human C3b (human) [9] = biological target: human C3b (human) (UniProt P01024); experiment: immunostaining of cells or tissue; remark: listed apart in the source

Chain of UniProt P01024 (P01024 23-667, chain 1 of 2): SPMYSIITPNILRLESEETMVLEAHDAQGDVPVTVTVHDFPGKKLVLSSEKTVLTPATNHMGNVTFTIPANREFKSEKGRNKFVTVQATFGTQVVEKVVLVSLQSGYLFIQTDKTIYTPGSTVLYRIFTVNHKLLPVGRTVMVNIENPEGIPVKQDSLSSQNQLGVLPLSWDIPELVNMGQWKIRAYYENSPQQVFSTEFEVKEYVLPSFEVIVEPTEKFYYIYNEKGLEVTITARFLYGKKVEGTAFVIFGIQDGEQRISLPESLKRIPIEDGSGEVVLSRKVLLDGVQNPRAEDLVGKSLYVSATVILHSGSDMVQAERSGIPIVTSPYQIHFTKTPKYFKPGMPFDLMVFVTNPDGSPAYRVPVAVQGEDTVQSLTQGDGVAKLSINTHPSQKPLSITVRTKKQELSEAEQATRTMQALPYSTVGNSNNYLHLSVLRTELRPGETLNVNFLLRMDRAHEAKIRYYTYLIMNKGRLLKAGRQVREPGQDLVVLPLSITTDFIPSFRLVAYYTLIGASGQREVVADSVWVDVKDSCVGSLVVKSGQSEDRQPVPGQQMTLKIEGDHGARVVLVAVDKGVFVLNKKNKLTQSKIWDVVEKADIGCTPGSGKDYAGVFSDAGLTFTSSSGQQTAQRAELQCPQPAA
Chain of UniProt P01024 (P01024 749-1663, chain 2 of 2): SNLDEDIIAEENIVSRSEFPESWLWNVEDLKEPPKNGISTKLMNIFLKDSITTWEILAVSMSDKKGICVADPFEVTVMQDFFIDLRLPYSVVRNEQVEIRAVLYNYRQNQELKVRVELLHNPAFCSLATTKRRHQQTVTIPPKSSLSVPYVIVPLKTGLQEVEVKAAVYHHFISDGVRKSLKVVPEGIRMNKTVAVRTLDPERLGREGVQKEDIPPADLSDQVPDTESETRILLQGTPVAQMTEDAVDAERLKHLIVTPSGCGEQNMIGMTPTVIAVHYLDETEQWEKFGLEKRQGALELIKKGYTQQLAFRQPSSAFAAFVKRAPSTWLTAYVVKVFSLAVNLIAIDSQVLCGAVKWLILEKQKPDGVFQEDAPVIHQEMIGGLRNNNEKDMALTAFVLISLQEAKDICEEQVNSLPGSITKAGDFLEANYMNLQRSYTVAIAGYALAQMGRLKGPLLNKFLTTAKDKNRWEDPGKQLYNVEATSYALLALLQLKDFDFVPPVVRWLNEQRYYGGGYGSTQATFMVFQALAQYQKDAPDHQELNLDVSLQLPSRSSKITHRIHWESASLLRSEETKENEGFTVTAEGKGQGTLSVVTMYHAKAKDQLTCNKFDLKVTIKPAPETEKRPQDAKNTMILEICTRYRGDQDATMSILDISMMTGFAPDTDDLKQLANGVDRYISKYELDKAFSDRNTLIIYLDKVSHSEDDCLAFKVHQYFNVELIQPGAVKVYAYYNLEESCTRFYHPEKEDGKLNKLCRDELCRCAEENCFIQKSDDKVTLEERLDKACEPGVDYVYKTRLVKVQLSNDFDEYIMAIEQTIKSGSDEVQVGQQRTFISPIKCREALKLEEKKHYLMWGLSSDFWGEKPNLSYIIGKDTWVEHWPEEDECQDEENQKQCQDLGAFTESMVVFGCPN

percent cells binding [1] | percent cells binding [2] | percent immunofluorescence positive cells [2] | percent rosette-forming cells [3] | percent immunofluorescence positive cells (human C3b (human) [4]) | percent immunofluorescence positive cells (human C3b (human) [5]) | percent immunofluorescence positive cells (human C3b (human) [6]) | percent immunofluorescence positive cells (human C3b (human) [7]) | percent immunofluorescence positive cells (human C3b (human) [8]) | percent immunofluorescence positive cells (human C3b (human) [9]) | percent immunofluorescence positive cells [1] | Substance
90% | 100% | 98% | 100% and 98% | – | – | – | – | – | – | – | human C3b (from UniProt P01024 23-667; P01024 749-1663) (domain or fragment)
– | – | – | – | 93% | 89% | 5% | 95% | 5% | 2% | – | factor B (natural protein)
90% | 100% | 100% | – | – | – | – | – | – | – | 100% | human complement component C3 (from UniProt P01024 23-667; P01024 672-1663) (natural protein)
